Measurements from US20190263889A1.
Values joined by “and” are separate entries in the source; they are usually repeats but may differ in a detail not shown here. Equal entries are not always repeated.

What was measured:
[1] = biological target: CTLA-4Fc mutant protein M1 (human (murine residues substituted)); experiment: ELISA; binder 10 ng/ml on coated target
[2] = biological target: CTLA-4Fc mutant protein M10 (human (murine residues substituted)); experiment: ELISA; binder 10 ng/ml on coated target
[3] = biological target: CTLA-4Fc mutant protein M11 (human (murine residues substituted)); experiment: ELISA; binder 10 ng/ml on coated target
[4] = biological target: CTLA-4Fc mutant protein M2 (human (murine residues substituted)); experiment: ELISA; binder 10 ng/ml on coated target
[5] = biological target: CTLA-4Fc mutant protein M3 (human (murine residues substituted)); experiment: ELISA; binder 10 ng/ml on coated target
[6] = biological target: CTLA-4Fc mutant protein M4 (human (murine residues substituted)); experiment: ELISA; binder 10 ng/ml on coated target
[7] = biological target: CTLA-4Fc mutant protein M5 (human (murine residues substituted)); experiment: ELISA; binder 10 ng/ml on coated target
[8] = biological target: CTLA-4Fc mutant protein M6 (human (murine residues substituted)); experiment: ELISA; binder 10 ng/ml on coated target
[9] = biological target: CTLA-4Fc mutant protein M7 (human (murine residues substituted)); experiment: ELISA; binder 10 ng/ml on coated target
[10] = biological target: CTLA-4Fc mutant protein M8 (human (murine residues substituted)); experiment: ELISA; binder 10 ng/ml on coated target
[11] = biological target: CTLA-4Fc mutant protein M9 (human (murine residues substituted)); experiment: ELISA; binder 10 ng/ml on coated target
[12] = biological target: wild type human CTLA-4Fc fusion protein (abatacept) (human); experiment: ELISA; binder 10 ng/ml on coated target
[13] = biological target: CTLA-4Fc mutant protein M10 (human (murine residues substituted)); experiment: ELISA; binder 0 (blank) on coated target
[14] = biological target: CTLA-4Fc mutant protein M11 (human (murine residues substituted)); experiment: ELISA; binder 0 (blank) on coated target
[15] = biological target: CTLA-4Fc mutant protein M3 (human (murine residues substituted)); experiment: ELISA; binder 0 (blank) on coated target
[16] = biological target: CTLA-4Fc mutant protein M5 (human (murine residues substituted)); experiment: ELISA; binder 0 (blank) on coated target
[17] = biological target: CTLA-4Fc mutant protein M6 (human (murine residues substituted)); experiment: ELISA; binder 0 (blank) on coated target
[18] = biological target: CTLA-4Fc mutant protein M8 (human (murine residues substituted)); experiment: ELISA; binder 0 (blank) on coated target
[19] = biological target: wild type human CTLA-4Fc fusion protein (abatacept) (human); experiment: ELISA; binder 0 (blank) on coated target

CTLA-4Fc mutant protein M11 (human (murine residues substituted)), sequence (chain, as listed by the source mutant): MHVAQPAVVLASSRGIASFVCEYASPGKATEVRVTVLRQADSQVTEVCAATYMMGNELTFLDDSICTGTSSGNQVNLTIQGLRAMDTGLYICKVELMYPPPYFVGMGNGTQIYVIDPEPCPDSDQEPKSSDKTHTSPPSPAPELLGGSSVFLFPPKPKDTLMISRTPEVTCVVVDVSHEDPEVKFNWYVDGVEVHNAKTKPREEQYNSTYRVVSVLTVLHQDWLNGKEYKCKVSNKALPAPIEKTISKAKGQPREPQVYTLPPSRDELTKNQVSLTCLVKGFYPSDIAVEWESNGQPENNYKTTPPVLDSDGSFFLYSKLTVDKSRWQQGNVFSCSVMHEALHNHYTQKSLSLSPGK
CTLA-4Fc mutant protein M3 (human (murine residues substituted)), sequence (chain, as listed by the source mutant): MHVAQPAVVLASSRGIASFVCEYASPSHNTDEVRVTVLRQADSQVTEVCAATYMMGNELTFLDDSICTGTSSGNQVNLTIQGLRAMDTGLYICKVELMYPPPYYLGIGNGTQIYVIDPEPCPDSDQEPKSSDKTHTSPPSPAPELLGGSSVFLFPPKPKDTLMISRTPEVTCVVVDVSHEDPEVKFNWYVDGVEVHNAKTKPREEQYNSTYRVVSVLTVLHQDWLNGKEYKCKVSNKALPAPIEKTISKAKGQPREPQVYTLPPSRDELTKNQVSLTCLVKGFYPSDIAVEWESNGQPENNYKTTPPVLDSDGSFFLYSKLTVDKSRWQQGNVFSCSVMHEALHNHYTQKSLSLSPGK
wild type human CTLA-4Fc fusion protein (abatacept) (human), sequence (chain, as listed by the source limits assumed): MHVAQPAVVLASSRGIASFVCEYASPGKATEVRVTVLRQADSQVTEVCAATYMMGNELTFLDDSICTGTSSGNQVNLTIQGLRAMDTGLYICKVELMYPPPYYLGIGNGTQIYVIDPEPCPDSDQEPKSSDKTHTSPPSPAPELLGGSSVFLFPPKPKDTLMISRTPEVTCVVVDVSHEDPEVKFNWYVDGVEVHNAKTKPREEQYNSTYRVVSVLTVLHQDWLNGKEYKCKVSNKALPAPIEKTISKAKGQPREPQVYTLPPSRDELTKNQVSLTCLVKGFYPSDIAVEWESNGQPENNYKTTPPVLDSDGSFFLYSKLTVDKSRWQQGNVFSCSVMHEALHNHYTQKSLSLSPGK
CTLA-4Fc mutant protein M6 (human (murine residues substituted)), sequence (chain, as listed by the source mutant): as the sequence (chain, as listed by the source limits assumed) above, with A50T counted along it
CTLA-4Fc mutant protein M8 (human (murine residues substituted)), sequence (chain, as listed by the source mutant): as the sequence (chain, as listed by the source limits assumed) above, with S70F, S71N, G72E, N73S, Q74R counted along it
CTLA-4Fc mutant protein M5 (human (murine residues substituted)), sequence (chain, as listed by the source mutant): as the sequence (chain, as listed by the source limits assumed) above, with Y52F, M53T, M54E, G55K, E57T, L58V, T59G counted along it
CTLA-4Fc mutant protein M10 (human (murine residues substituted)), sequence (chain, as listed by the source mutant): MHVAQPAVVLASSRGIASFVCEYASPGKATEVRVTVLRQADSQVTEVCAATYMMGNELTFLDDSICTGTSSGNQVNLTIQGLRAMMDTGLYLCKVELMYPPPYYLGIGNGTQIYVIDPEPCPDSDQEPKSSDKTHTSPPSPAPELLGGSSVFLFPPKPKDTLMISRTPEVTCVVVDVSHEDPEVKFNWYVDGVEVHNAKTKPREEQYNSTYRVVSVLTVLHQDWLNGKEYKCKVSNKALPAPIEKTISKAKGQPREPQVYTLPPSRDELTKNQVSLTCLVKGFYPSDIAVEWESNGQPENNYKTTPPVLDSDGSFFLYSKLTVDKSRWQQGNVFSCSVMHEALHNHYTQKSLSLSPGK
CTLA-4Fc mutant protein M4 (human (murine residues substituted)), sequence (chain, as listed by the source mutant): as the sequence (chain, as listed by the source limits assumed) above, with Q39T, A40N, S42Q, Q43M counted along it
CTLA-4Fc mutant protein M9 (human (murine residues substituted)), sequence (chain, as listed by the source mutant): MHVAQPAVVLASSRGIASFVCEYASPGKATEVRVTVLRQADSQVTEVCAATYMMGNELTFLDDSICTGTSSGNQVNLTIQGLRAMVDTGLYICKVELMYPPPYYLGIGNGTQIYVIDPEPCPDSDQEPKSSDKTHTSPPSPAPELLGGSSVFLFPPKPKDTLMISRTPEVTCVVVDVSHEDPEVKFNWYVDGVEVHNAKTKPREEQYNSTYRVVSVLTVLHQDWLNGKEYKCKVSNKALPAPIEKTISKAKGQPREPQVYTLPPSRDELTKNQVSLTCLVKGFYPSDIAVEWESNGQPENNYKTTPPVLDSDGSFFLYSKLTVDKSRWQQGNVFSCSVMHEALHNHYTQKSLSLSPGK
CTLA-4Fc mutant protein M7 (human (murine residues substituted)), sequence (chain, as listed by the source mutant): as the sequence (chain, as listed by the source limits assumed) above, with D63Y, S64P, I65F, T67S counted along it
CTLA-4Fc mutant protein M2 (human (murine residues substituted)), sequence (chain, as listed by the source mutant): as the sequence (chain, as listed by the source limits assumed) above, with R14H, I16L, V20P counted along it
CTLA-4Fc mutant protein M1 (human (murine residues substituted)), sequence (chain, as listed by the source mutant): as the sequence (chain, as listed by the source limits assumed) above, with M1I, H2Q, A4T, A7S counted along it

Question: “chimeric L3D10 anti-human CTLA-4 antibody” was tested. Which OD450 [1] did it give?
Answer: 2.47 OD450 and 2.43 OD450

Question: And the OD450 [2]?
Answer: 0.18 OD450 and 0.169 OD450

Question: What about the OD450 [3] of the same substance?
Answer: 0.202 OD450 and 0.203 OD450

Question: What about the OD450 [4] of the same substance?
Answer: 0.375 OD450 and 0.317 OD450

Question: And the OD450 [5]?
Answer: 0.62 OD450 and 0.587 OD450

Question: What about the OD450 [6] of the same substance?
Answer: 0.507 OD450 and 0.356 OD450

Question: What about the OD450 [7] of the same substance?
Answer: 1.54 OD450 and 1.37 OD450

Question: What about the OD450 [8] of the same substance?
Answer: 1.03 OD450 and 0.976 OD450

Question: What about the OD450 [9] of the same substance?
Answer: 0.714 OD450 and 0.738 OD450

Question: What about the OD450 [10] of the same substance?
Answer: 1.23 OD450 and 1.24 OD450

Question: What about the OD450 [11] of the same substance?
Answer: 0.18 OD450 and 0.171 OD450

Question: And the OD450 [12]?
Answer: 1.43 OD450 and 1.52 OD450

Question: What about the OD450 [13] of the same substance?
Answer: 0.215 OD450 and 0.114 OD450

Question: And the OD450 [14]?
Answer: 0.171 OD450 and 0.155 OD450

Question: What about the OD450 [15] of the same substance?
Answer: 0.183 OD450 and 0.167 OD450

Question: What about the OD450 [16] of the same substance?
Answer: 0.177 OD450 and 0.229 OD450

Question: What about the OD450 [17] of the same substance?
Answer: 0.183 OD450 and 0.177 OD450

Question: And the OD450 [18]?
Answer: 0.368 OD450 and 0.217 OD450

Question: What about the OD450 [19] of the same substance?
Answer: 0.18 OD450 and 0.177 OD450
